These results are taken from publication PMC7043342.

In series [1] the target is SPD_1495 (33-442 AA), recombinant, GST tag removed (S. pneumoniae D39). The series can be described thus: SPR; SPD_1495 (30 ug/ml) fixed on a NanoGold-COOH sensor chip by capture coupling; ComE^D58E injected at 100, 200, 400, 800 and 1,600 nmol/liter in 0.01 M PBS; Open-SPR (Nicoya), 25°C; association and dissociation 300 s each; one-to-one diffusion-corrected model, TraceDrawer. (In SPR one partner is held on a chip, and binding of the other changes the refractive index at the surface.)

The target in series [2] is T1, SPD_1495 (Streptococcus pneumoniae D39) (UniProt A0A0H2ZL68).
T1 sequence: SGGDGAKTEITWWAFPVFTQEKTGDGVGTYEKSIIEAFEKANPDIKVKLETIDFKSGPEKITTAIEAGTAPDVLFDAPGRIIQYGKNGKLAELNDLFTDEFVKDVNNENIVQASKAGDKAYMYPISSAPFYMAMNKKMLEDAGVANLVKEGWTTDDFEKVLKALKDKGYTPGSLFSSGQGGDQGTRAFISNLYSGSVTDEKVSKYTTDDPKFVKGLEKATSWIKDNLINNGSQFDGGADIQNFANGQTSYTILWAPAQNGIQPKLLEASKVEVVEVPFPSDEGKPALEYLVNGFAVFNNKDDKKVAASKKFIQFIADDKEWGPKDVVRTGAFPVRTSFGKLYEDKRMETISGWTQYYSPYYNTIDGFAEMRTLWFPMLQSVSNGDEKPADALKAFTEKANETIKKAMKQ
The series can be described thus: EMSA.

pKd: −log10 of the molar value.

As to “ComE^D58E, phosphomimetic mutant of the response regulator ComE (natural protein)”, the negative-log Kd (pKd) in series [1] was 5.81. With “TACACATCTGCTTCTAAAATATTGTTAGAAAACGATTTGACTGTCCTGATCAATTTGTCATGTTCTTATTTCATTTTACTATATTTTTGGTTCGCGGGAAGTCTACTAAGATACTTAAAGATGCAGATAGTGAAAAAAGGTGTAGACATTACCGTAAAAAAGTGATATAATCGTAAGATGTTCAATGTATAGGTGTTAATCATGAGTAGACGTTTTAA (double strand) [Bio-cps (cps upstream promoter)]”, the binding entry in series [2] was “no binding”.

One may read the pKd as −log10 of the Kd, conventionally taken in molar units.
